According to patent publication US20120316071A1 (published 2012):
Changes are numbered by the printed parent chain. Names and notes keep the numbering of the source.

B1: Fab VH5-51_IGHD5-18*01>3_IGHJ4*01 G100K/G104T G24T/S28R/G35V (H:KT TRV) & V3-4_IGLJ1*01 V91L/S96P S57Y (Fab, V domains shown)
VH: EVQLVQSGAEVKKPGESLKISCKTSGYRFTSYWIVWVRQMPGKGLEWMGIIYPGDSDTRYSPSFQGQVTISADKSISTAYLQWSSLKASDTAMYYCARRKYSYTYDYFDYWGQGTLVTVSS
VL: QTVVTQEPSFSVSPGGTVTLTCGLSSGSVSTSYYPSWYQQTPGQAPRTLIYSTNTRYSGVPDRFSGSILGNKAALTITGAQADDESDYYCLLYMGPGISYVFGTGTKVTVL
notes: Fab made in E. coli: VH in plasmid A (CH1, His6 and Flag tags), VL in plasmid E (lambda CL); also called H:KT TRV & L:LP S57Y
B2: Fab VH5-51_IGHD5-18*01>3_IGHJ4*01 G100K/G104T G24T/S28R/G35V (H:KT TRV) & V3-4_IGLJ1*01 V91L/S96P S57K (Fab, V domains shown)
VH: B1 VH
VL: B1 VL with Y57K
notes: Fab made in E. coli: VH in plasmid A (CH1, His6 and Flag tags), VL in plasmid E (lambda CL); also called H:KT TRV & L:LP S57K
B3: Fab VH5-51_IGHD5-18*01>3_IGHJ4*01 G100K/G104T G24T/S28R/G35V (H:KT TRV) & V3-4_IGLJ1*01 V91L/S96P S57H (Fab, V domains shown)
VH: B1 VH
VL: B1 VL with Y57H
notes: Fab made in E. coli: VH in plasmid A (CH1, His6 and Flag tags), VL in plasmid E (lambda CL); also called H:KT TRV & L:LP S57H
B4: Fab VH5-51_IGHD5-18*01>3_IGHJ4*01 G100K/G104T G24T/S28R/G35V (H:KT TRV) & V3-4_IGLJ1*01 V91L/S96P S57Q (Fab, V domains shown)
VH: B1 VH
VL: B1 VL with Y57Q
notes: Fab made in E. coli: VH in plasmid A (CH1, His6 and Flag tags), VL in plasmid E (lambda CL); also called H:KT TRV & L:LP S57Q
B5: Fab VH5-51_IGHD5-18*01>3_IGHJ4*01 G100K/G104T G24T/S28R/G35V (H:KT TRV) & V3-4_IGLJ1*01 V91L/S96P S57V (Fab, V domains shown)
VH: B1 VH
VL: B1 VL with Y57V
notes: Fab made in E. coli: VH in plasmid A (CH1, His6 and Flag tags), VL in plasmid E (lambda CL); also called H:KT TRV & L:LP S57V
B6: Fab VH5-51_IGHD5-18*01>3_IGHJ4*01 G100K/G104T G24T/S28R/G35V (H:KT TRV) & V3-4_IGLJ1*01 V91L/S96P S57R (Fab, V domains shown)
VH: B1 VH
VL: B1 VL with Y57R
notes: Fab made in E. coli: VH in plasmid A (CH1, His6 and Flag tags), VL in plasmid E (lambda CL); also called H:KT TRV & L:LP S57R
B7: Fab VH5-51_IGHD5-18*01>3_IGHJ4*01 G100K/G104T G24T/S28R/G35V (H:KT TRV) & V3-4_IGLJ1*01 V91L/S96P S57L (Fab, V domains shown)
VH: B1 VH
VL: B1 VL with Y57L
notes: Fab made in E. coli: VH in plasmid A (CH1, His6 and Flag tags), VL in plasmid E (lambda CL); also called H:KT TRV & L:LP S57L
B8: Fab VH5-51_IGHD5-18*01>3_IGHJ4*01 G100K/G104T G24T/S28R/G35V (H:KT TRV) & V3-4_IGLJ1*01 V91L/S96P S57P (Fab, V domains shown)
VH: B1 VH
VL: B1 VL with Y57P
notes: Fab made in E. coli: VH in plasmid A (CH1, His6 and Flag tags), VL in plasmid E (lambda CL); also called H:KT TRV & L:LP S57P
B9: Fab VH5-51_IGHD5-18*01>3_IGHJ4*01 G100K/G104T G24T/S28R/G35V (H:KT TRV) & V3-4_IGLJ1*01 V91L/S96P S57F (Fab, V domains shown)
VH: B1 VH
VL: B1 VL with Y57F
notes: Fab made in E. coli: VH in plasmid A (CH1, His6 and Flag tags), VL in plasmid E (lambda CL); also called H:KT TRV & L:LP S57F
B10: Fab VH5-51_IGHD5-18*01>3_IGHJ4*01 G100K/G104T G24T/S28R/G35V (H:KT TRV) & V3-4_IGLJ1*01 V91L/S96P S57I (Fab, V domains shown)
VH: B1 VH
VL: B1 VL with Y57I
notes: Fab made in E. coli: VH in plasmid A (CH1, His6 and Flag tags), VL in plasmid E (lambda CL); also called H:KT TRV & L:LP S57I
B11: Fab VH1-46_IGHD6-6*01_IGHJ1*01 S102A/S103P/S104F (APF) & L6_IGKJ1*01 S30L (Fab, V domains shown)
VH: QVQLVQSGAEVKKPGASVKVSCKASGYTFTSYYMHWVRQAPGQGLEWMGIINPSGGSTSYAQKFQGRVTMTRDTSTSTVYMELSSLRSEDTAVYYCAREEYAPFSAEYFQHWGQGTLVTVSS
VL: EIVLTQSPATLSLSPGERATLSCRASQSVLSYLAWYQQKPGQAPRLLIYDASNRATGIPARFSGSGSGTDFTLTISSLEPEDFAVYYCQQRSNWPPWTFGQGTKVEIKR
notes: Tested as a Fab; Expressed in E. coli from Plasmid A (CH1 with His6 and Flag tags) and Plasmid C (kappa CL); also called APF & S30L
B12: Fab VH1-46_IGHD6-6*01_IGHJ1*01 S102A/S103P/S104F/H111F (APFF) & L6_IGKJ1*01 S28F (Fab, V domains shown)
VH: B11 VH with H111F
VL: B11 VL with S28F, L30S
notes: Tested as a Fab; Expressed in E. coli from Plasmid A (CH1 with His6 and Flag tags) and Plasmid C (kappa CL); also called APFF & S28F
B13: Fab VH1-46_IGHD6-6*01_IGHJ1*01 S102A/S103P/S104F (APF) & L6_IGKJ1*01 S30W (Fab, V domains shown)
VH: B11 VH
VL: B11 VL with L30W
notes: Tested as a Fab; Expressed in E. coli from Plasmid A (CH1 with His6 and Flag tags) and Plasmid C (kappa CL); also called APF & S30W
B14: Fab VH1-46_IGHD6-6*01_IGHJ1*01 S102A/S103P/S104F/H111F (APFF) & L6_IGKJ1*01 S28G (Fab, V domains shown)
VH: B11 VH with H111F
VL: B11 VL with S28G, L30S
notes: Tested as a Fab; Expressed in E. coli from Plasmid A (CH1 with His6 and Flag tags) and Plasmid C (kappa CL); also called APFF & S28G
B15: Fab VH1-46_IGHD6-6*01_IGHJ1*01 S102A/S103P/S104F/H111F (APFF) & L6_IGKJ1*01 S28K (Fab, V domains shown)
VH: B11 VH with H111F
VL: B11 VL with S28K, L30S
notes: Tested as a Fab; Expressed in E. coli from Plasmid A (CH1 with His6 and Flag tags) and Plasmid C (kappa CL); also called APFF & S28K
B16: Fab VH1-46_IGHD6-6*01_IGHJ1*01 S102A/S103P/S104F (APF) & L6_IGKJ1*01 Y32S (Fab, V domains shown)
VH: B11 VH
VL: B11 VL with L30S, Y32S
notes: Tested as a Fab; Expressed in E. coli from Plasmid A (CH1 with His6 and Flag tags) and Plasmid C (kappa CL); also called APF & Y32S
B17: Fab VH1-46_IGHD6-6*01_IGHJ1*01 S102A/S103P/S104F (APF) & L6_IGKJ1*01 S30R (Fab, V domains shown)
VH: B11 VH
VL: B11 VL with L30R
notes: Tested as a Fab; Expressed in E. coli from Plasmid A (CH1 with His6 and Flag tags) and Plasmid C (kappa CL); also called APF & S30R
B18: Fab VH1-46_IGHD6-6*01_IGHJ1*01 S102A/S103P/S104F/H111F (APFF) & L6_IGKJ1*01 S28V (Fab, V domains shown)
VH: B11 VH with H111F
VL: B11 VL with S28V, L30S
notes: Tested as a Fab; Expressed in E. coli from Plasmid A (CH1 with His6 and Flag tags) and Plasmid C (kappa CL); also called APFF & S28V
B19: Fab VH1-46_IGHD6-6*01_IGHJ1*01 S102A/S103P/S104F (APF) & L6_IGKJ1*01 S30T (Fab, V domains shown)
VH: B11 VH
VL: B11 VL with L30T
notes: Tested as a Fab; Expressed in E. coli from Plasmid A (CH1 with His6 and Flag tags) and Plasmid C (kappa CL); also called APF & S30T

Biological target: T1, Recombinant Human DLL4 (delta-like protein 4) (human, UniProt Q9NR61 27-524)
T1 construct: Bought recombinant human DLL4 (R&D Systems Cat#1506-D4/CF) coated on the ELISA plate; also called rHuman DLL4; Delta-like ligand 4
Experiment: ELISA, DLL4 coated on plate, 100 nM Fab

ELISA Signal-blank (100 nM Fab)	Binder
0.28	B1
0.17	B2
0.21	B3
0.21	B4
0.34	B5
0.18	B6
0.3	B7
0.36	B8
0.1	B9
0.24	B10

Biological target: T2, Recombinant Human DLL4 (R&D Systems Cat#1506-D4/CF) (human, UniProt Q9NR61 27-524)
T2 construct: Bought recombinant protein; also called delta-like protein 4; rHuman DLL4
Experiment: ECL (MSD) multispot binding assay, DLL4 spotted on plate, Fab in solution

ECL signal	Signal/Blank	Binder
1630	6.9	B11
134000	537	B12
791	4.3	B13
183000	533	B14
124000	314	B15
1030	4.9	B16
745	7.8	B17
83100	351	B18
1020	4.9	B19
